Measured values: US12697371B2, “Method for preventing, treating or delaying myocardial damage using neuregulin and composition” (ZENSUN (SHANGHAI) SCIENCE & TECHNOLOGY, CO., LTD., priority 2019, dated 2026)

Tested on: rats with acute myocardial infarction caused by left coronary artery ligation
Assay: Echocardiography, rat acute myocardial infarction, long-term subcutaneous NRG at different frequencies (Example 2)
Type: in vivo, Wistar rats
Protocol: Established in the same way as the rat model of heart failure caused by coronary artery ligation in 5.1, Embodiment 1
All the experimental animals were randomly divided into groups upon coronary artery ligation. According to post-ligation survival, the rats were randomly divided into 4 groups by body weight: the excipient group (control group), the NRG30 μg/kgDay group, the NRG30 μg/kg/BlW group and the NRG30 μgkgDay*7+QW group. Administration began on the day following the animal model establishment of myocardial infarction. For the first three groups and for the fourth group on the first 7 days, the rats were given subcutaneous injection 3 times a day and weighed once a day. They took medicine by weight and the dose was 30 μg/kg/day. For the fourth group in the last four weeks, the rats were injected with NRG on one day per week, and the daily dose was 30 μg/kg.
After being anesthetized with 4% isoflurane, the rats were fixed onto the operating board in the left lateral recumbent position. The head of the rats was fixed in the breathing mask of the gaseous anesthesia machine, with isoflurane used for maintenance of anesthesia. After chest hair removal, the skin was disinfected with 75% alcohol and coated with a coupling agent. An echocardiography probe was used to detect any echo signal from the left ventricle of the rats. The left ventricular end-diastolic diameter and left ventricular end-systolic diameter (D) were measured. The left ventricular end-diastolic volume (EDV) and end-systolic volume (ESV) were calculated. Also, the ejection fraction (EF) value was found, […]. The cardiac function of the rats was performed by echocardiography in the 1st, 2nd, 3rd and 5th weeks after the occurrence of myocardial infarction.

[1] = 30 μg/kg/Day sc, after 35 days of continuous administration
[2] = DAY 8, 30 μg/kg BIW sc, 3 times a day, 2 days a week × 5 weeks
[3] = DAY 8, 30 μg/kg Day*7 + QW sc, 3 times a day × 7 days, then 1 day/week × 4 weeks
[4] = DAY 8, 30 μg/kg/Day sc, 3 times a day × 35 days
[5] = DAY 15, 30 μg/kg BIW sc, 3 times a day, 2 days a week × 5 weeks
[6] = DAY 15, 30 μg/kg Day*7 + QW sc, 3 times a day × 7 days, then 1 day/week × 4 weeks
[7] = DAY 15, 30 μg/kg/Day sc, 3 times a day × 35 days
[8] = DAY 22, 30 μg/kg BIW sc, 3 times a day, 2 days a week × 5 weeks
[9] = DAY 22, 30 μg/kg Day*7 + QW sc, 3 times a day × 7 days, then 1 day/week × 4 weeks
[10] = DAY 22, 30 μg/kg/Day sc, 3 times a day × 35 days
[11] = DAY 36, 30 μg/kg BIW sc, 3 times a day, 2 days a week × 5 weeks
[12] = DAY 36, 30 μg/kg Day*7 + QW sc, 3 times a day × 7 days, then 1 day/week × 4 weeks
[13] = DAY 36, 30 μg/kg/Day sc, 3 times a day × 35 days

B1: NRG: fragment of the NRG-1β2 isomer, 177-237 amino acid fragment containing an EGF-like domain (SEQ ID NO: 1); developed by Zensun (protein, listed as Homo sapiens)
chain: SHLVKCAEKEKTFCVNGGECFMVKDLSNPSRYLCKCPNEFTGDRCQNYVMASFYKAEELYQ
EF value compared with the control group (30 μg/kg/BIW sc, after 35 days): rising trend
EF value compared with the control group [1]: significantly higher
LVEDd and LVEDs compared with the control group [1]: significantly reduce
Cardiac function compared with the control group (30 μg/kg/Day*7+QW sc, first 7 days of continuous administration): improved to some extent
EF [2]: 50.9 ± 8.958%
LVEDd [2]: 0.809 ± 0.045 cm
LVEDs [2]: 0.625 ± 0.068 cm
EF [3]: 50.9 ± 7.337%
LVEDd [3]: 0.785 ± 0.045 cm
LVEDs [3]: 0.607 ± 0.061 cm
EF [4]: 52.2 ± 7.802%
LVEDd [4]: 0.785 ± 0.046 cm
LVEDs [4]: 0.601 ± 0.063 cm
EF [5]: 48.9 ± 9.893%
LVEDd [5]: 0.856 ± 0.065 cm
LVEDs [5]: 0.671 ± 0.091 cm
EF [6]: 47.1 ± 8.344%
LVEDd [6]: 0.864 ± 0.054 cm
LVEDs [6]: 0.686 ± 0.074 cm
EF [7]: 50.3 ± 8.49%
LVEDd [7]: 0.832 ± 0.054 cm
LVEDs [7]: 0.646 ± 0.075 cm
EF [8]: 47.1 ± 10.427%
LVEDd [8]: 0.896 ± 0.074 cm
LVEDs [8]: 0.711 ± 0.102 cm
EF [9]: 44.7 ± 8.434%
LVEDd [9]: 0.905 ± 0.062 cm
LVEDs [9]: 0.729 ± 0.08 cm
EF [10]: 49.5 ± 7.897%
LVEDd [10]: 0.859 ± 0.057 cm
LVEDs [10]: 0.670 ± 0.069 cm
EF [11]: 45.2 ± 10.248%
LVEDd [11]: 0.928±0.084 cm
LVEDs [11]: 0.746 ± 0.110 cm
EF [12]: 42.7±9.892%
LVEDd [12]: 0.931±0.070 cm
LVEDs [12]: 0.76 ± 0.097 cm
EF [13]: 47.9±8.342%
LVEDd [13]: 0.879±0.058 cm
LVEDs [13]: 0.694±0.077 cm
